Values joined by “and” are separate entries in the source; they are usually repeats but may differ in a detail not shown here. Equal entries are not always repeated.
Legend:
[1] = target: T1, recombinant human VEGF165 (human, UniProt P15692 27-191); test: Biacore SPR, VEGF immobilized, pH 5
T1 construct: mature; Isoform VEGF165 of the entry; also called hVEGF165; hVEGF
Target sequence in this assay (P15692 other isoform, or with tags, fused parts or gaps): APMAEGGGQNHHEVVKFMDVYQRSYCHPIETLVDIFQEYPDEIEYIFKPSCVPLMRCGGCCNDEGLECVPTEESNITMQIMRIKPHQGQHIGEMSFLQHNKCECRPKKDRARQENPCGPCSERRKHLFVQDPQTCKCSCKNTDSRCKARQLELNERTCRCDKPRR

[2] = target: T1, recombinant human VEGF165; test: cell-based or functional assay
Target sequence in this assay (P15692 other isoform, or with tags, fused parts or gaps): as above

[3] = target: T1, recombinant human VEGF165; test: Biacore SPR, VEGF immobilized, pH 5; remark: listed apart in the source
Target sequence in this assay (P15692 other isoform, or with tags, fused parts or gaps): as above

[4] = target: T1, recombinant human VEGF165; test: VEGFR2 competition ELISA: hVEGF165 coated on the plate, scFv pre-incubated with human VEGFR2/Fc chimera, bound VEGFR2/Fc detected with anti-human Fc-HRP, OD 450 nm; half-maximal inhibition
Protocol: After 30-60 min of incubation at room temperature, the mixtures were transferred to the human VEGF₁₆₅ immobilized plate and incubated for 90 min. […] Optical density at 450 nm (OD 450 nm) was measured using a Sunrise microplate reader (Tecan).

[5] = target: recombinant rat VEGF164 (rat) (UniProt P16612); test: Biacore SPR, VEGF immobilized, pH 5
[6] = target: recombinant murine VEGF164 (mouse) (UniProt Q00731); test: Biacore SPR, VEGF immobilized, pH 5
[7] = target: T1, recombinant human VEGF165; test: cell-based or functional assay; remark: listed apart in the source
[8] = target: T1, recombinant human VEGF165; test: Biacore SPR, VEGF immobilized, pH 5; remark: listed apart in the source
Target sequence in this assay (P15692 other isoform, or with tags, fused parts or gaps): as above

[9] = target: T2, recombinant human VEGF121 (human, UniProt P15692 27-147); test: Biacore SPR, VEGF immobilized, pH 5
T2 construct: mature; Isoform VEGF121 of the entry; also called hVEGF121
T2 sequence (looked up): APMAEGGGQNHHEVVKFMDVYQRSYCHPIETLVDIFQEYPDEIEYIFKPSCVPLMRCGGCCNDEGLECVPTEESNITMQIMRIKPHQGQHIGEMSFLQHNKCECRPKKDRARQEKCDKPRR

[10] = target: T3, recombinant human VEGF110 (human, UniProt P15692-4 27-136, limits assumed); test: Biacore SPR, VEGF immobilized, pH 5
T3 construct: Made in house; also called hVEGF110
T3 sequence (looked up): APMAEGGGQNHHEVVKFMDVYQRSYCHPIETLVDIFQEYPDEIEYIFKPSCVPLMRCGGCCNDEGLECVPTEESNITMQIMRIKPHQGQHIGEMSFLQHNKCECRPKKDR

recombinant human PLGF = target: T4, recombinant human PLGF (human, UniProt P49763-2 19-149, limits assumed); test: Biacore SPR, PlGF immobilized, pH 5
T4 construct: Negative control; also called PIGF
T4 sequence (looked up): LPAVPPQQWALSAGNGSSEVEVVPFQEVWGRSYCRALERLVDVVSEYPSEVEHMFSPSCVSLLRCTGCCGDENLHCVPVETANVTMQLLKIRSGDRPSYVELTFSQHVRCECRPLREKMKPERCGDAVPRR

[11] = target: T2, recombinant human VEGF121; test: Biacore SPR (FIG. 3b legend; differs from Table 9)
Protocol: In this example, the Biacore-binding ability of scFvs was tested and the binding affinity was measured using the exemplary surface plasmon resonance method with BIAcore™-T100. The VEGF proteins, tested for binding by these scFv candidates, in this example and later examples include purified Escherichia coli-expressed recombinant human VEGF₁₆₅ (PeproTech EC Ltd.), recombinant human VEGF₁₂₁ (PeproTech EC Ltd.), recombinant human VEGF₁₁₀ (ESBATech AG), recombinant murine VEGF₁₆₄ (PeproTech EC Ltd.), recombinant rat VEGF₁₆₄ (Biovision), recombinant rabbit VEGF₁₁₀ (ESBATech AG), and recombinant human PLGF (PeproTech EC Ltd.). For the surface plasmon resonance experiment, carboxymethylated dextran biosensor chips (CM4, GE Healthcare) were activated with N-ethyl-N′-(3-dimethylaminopropyl) carbodiimide hydrochloride and N-hydroxysuccinimide according to the supplier's instructions. Each of the 6 different VEGF forms, as exemplified above, was coupled to 1 of the 4 different flow cells on a CM4 sensor chip using a standard amine-coupling procedure. […] The apparent dissociation rate constant (kd), the apparent association rate constant (kₐ) and the apparent dissociation equilibrium constant (KD) were calculated using one-to-one Langmuir binding model with BIAcore T100 evaluation Software version 1.1.

[12] = target: T1, recombinant human VEGF165; test: Biacore SPR, VEGF immobilized, pH 7.4
Target sequence in this assay (P15692 other isoform, or with tags, fused parts or gaps): as the sequence (P15692 other isoform, or with tags, fused parts or gaps) above

[13] = target: T1, recombinant human VEGF165; test: cell-based or functional assay; remark: listed apart in the source
[14] = target: T1, recombinant human VEGF165; test: Biacore SPR (FIG. 4c legend; differs from Table 10)
Protocol: For the surface plasmon resonance experiment, carboxymethylated dextran biosensor chips (CM4, GE Healthcare) were activated with N-ethyl-N′-(3-dimethylaminopropyl) carbodiimide hydrochloride and N-hydroxysuccinimide according to the supplier's instructions. Each of the 6 different VEGF forms, as exemplified above, was coupled to 1 of the 4 different flow cells on a CM4 sensor chip using a standard amine-coupling procedure. […] The 4th flow cell of each chip was treated similarly except no proteins were immobilized prior to blocking, and the flow cell was used as in-line reference. […] Dissociation of the anti-VEGF scFv from the VEGF on the CM4 chip was allowed to proceed for 10 min at 25° C. Sensorgrams were generated for each anti-VEGF scFv sample after in-line reference cell correction followed by buffer sample subtraction. The apparent dissociation rate constant (kd), the apparent association rate constant (kₐ) and the apparent dissociation equilibrium constant (KD) were calculated using one-to-one Langmuir binding model with BIAcore T100 evaluation Software version 1.1.
The present invention also discloses derivatives originating from the lead anti-VEGF scFv candidates, which are mentioned above.

B1: 578-max (scFv)
scFv: EIVMTQSPSTLSASVGDRVIITCQASEIIHSWLAWYQQKPGKAPKLLIYLASTLASGVPSRFSGSGSGTQFTLTISSLQPDDFATYYCQNVYLASTNGANFGQGTKLTVLGGGGGSGGGGSGGGGSGGGGSEVQLVESGGGLVQPGGSLRLSCTASGFSLTDYYYMTWVRQAPGKGLEWVGFIDPDDDPYYATWAKGRFTISRDTSKNTVYLQMNSLRAEDTAVYYCAGGDHNSGWGLDIWGQGTLVTVSS
notes: also called EP578max; #821
In the case of B1, the koff [1] is reported as 0.000307 s⁻¹, the kon [1] is reported as 700000 M⁻¹ s⁻¹ and the “Rel. activity in HUVEC assay (EC50Luc[nM]/EC50test[nM])” value [2] is reported as 1.48. The koff [3] was 0.000307 s⁻¹, the kon [3] was 700000 M⁻¹ s⁻¹ and the “EC50 (read off the curve)” value [4] was roughly 0.4 nM. It also gave a koff [5] of 0.000528 s⁻¹, a kon [5] of 883000 M⁻¹ s⁻¹ and a koff [6] of 0.00044 s⁻¹. The kon [6] was 1.03e+06 M⁻¹ s⁻¹, the “EC50 in HUVEC assay (FIG. 8d)” value [7] was 0.103 nM and the koff [8] was 0.000307 s⁻¹. The kon [8] was 700000 M⁻¹ s⁻¹, the koff [9] was 0.000558 s⁻¹ and the kon [9] was 587000 M⁻¹ s⁻¹. The koff [10] was 0.000722 s⁻¹, the kon [10] was 523000 M⁻¹ s⁻¹ and the binding result (recombinant human PLGF) was “no binding”. For the same binder, the Kd [11] was 0.095 nM, the koff [12] was 3.76e-05 s⁻¹ and the kon [12] was 1.58e+06 M⁻¹ s⁻¹. The “Rel. activity in HUVEC assay (EC50Luc[nM]/EC50test[nM]) hVEGF” value [13] was 0.94 and 1 and 1.2.

B2: 578 wildtype C-His (scFv, not shown: small tags and cut ends)
scFv: DVVMTQTPSSVSAAVGDTVTINCQASEIIHSWLAWYQQKPGQPPKLLIYLASTLASGVPSRFKGSGSGTQFTLTISDLECADAAIYYCQNVYLASTNGANFGGGTEVVVKGGGGSGGGGSGGGGSGGGGSQSVEESGGRLVTPGTPLTLTCTASGFSLTDYYYMTWVRLAPGKGLEYIGFIDPDDDPYYATWAKGRFTISRTSTTVNLKMTSPTTEDTATYFCAGGDHNSGWGLDIWGPGTLVTVSL
notes: Rabbit wild type single chain
Work on B2 yielded a Kd [1] of 0.2 nM, a koff [1] of 0.000169 s⁻¹ and a kon [1] of 834000 M⁻¹ s⁻¹. The kon [14] was 845000 M⁻¹ s⁻¹.

Reference: patent publication US20150274820A1 (ESBATECH AN ALCON BIOMEDICAL RESEARCH UNIT, published 2015)
